Source: article PMC5653676

Biological target: IL-13 receptor (IL-4Rα and IL-13Rα1) (UniProt P24394)
Sequence of UniProt P24394 (P24394 26-825, chain 1 of 2): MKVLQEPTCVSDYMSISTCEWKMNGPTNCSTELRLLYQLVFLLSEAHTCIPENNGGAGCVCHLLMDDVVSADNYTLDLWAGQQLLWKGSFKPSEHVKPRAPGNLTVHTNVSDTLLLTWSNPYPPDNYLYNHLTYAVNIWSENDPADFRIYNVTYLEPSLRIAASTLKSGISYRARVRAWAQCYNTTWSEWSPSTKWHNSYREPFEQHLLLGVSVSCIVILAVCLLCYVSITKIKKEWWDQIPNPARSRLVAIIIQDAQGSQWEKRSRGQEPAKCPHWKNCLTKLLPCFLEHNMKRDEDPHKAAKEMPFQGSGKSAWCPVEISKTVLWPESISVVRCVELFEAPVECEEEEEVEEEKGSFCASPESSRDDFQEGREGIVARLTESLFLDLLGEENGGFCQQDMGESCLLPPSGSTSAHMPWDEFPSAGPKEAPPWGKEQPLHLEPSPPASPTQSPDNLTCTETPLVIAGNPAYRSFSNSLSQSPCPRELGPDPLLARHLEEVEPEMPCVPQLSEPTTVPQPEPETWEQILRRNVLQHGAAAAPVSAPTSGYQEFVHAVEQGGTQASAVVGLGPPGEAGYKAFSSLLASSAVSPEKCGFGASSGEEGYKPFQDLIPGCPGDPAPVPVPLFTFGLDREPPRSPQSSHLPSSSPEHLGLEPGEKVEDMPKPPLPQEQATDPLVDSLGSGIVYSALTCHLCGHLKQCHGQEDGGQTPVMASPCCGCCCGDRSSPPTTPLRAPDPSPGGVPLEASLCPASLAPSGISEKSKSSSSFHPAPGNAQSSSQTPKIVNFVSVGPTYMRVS
Sequence of UniProt P24394 (P78552 22-427, chain 2 of 2, further chain): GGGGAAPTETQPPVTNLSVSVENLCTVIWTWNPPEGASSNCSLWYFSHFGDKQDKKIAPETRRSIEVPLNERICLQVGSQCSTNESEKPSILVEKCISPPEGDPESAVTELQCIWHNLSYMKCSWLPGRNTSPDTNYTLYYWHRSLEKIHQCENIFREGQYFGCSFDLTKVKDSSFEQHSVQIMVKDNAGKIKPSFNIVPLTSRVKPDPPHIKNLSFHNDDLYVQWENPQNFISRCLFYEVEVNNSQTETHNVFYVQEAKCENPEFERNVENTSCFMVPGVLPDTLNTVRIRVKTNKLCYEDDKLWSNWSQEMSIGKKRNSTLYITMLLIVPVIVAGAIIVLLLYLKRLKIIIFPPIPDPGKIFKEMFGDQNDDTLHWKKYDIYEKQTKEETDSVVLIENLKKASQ

SEAP reporter (P STAT6/cEBP-SEAP) in HEK-293 cells co-transfected with IL-13Rα1, IL-4Rα and STAT6, 48 h with different physiological IL-13 concentrations; fold induction: 33 fold
Substance: human recombinant interleukin 13 (from UniProt P35225 25-146) (ligand)
